Source: the nanobody polyreactivity screen of Harvey et al. (2022)

test: yeast display, Sf9 membrane polyspecificity reagent, FACS + sequencing; frameworks hold sequencing errors
In short: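 In a synthetic yeast display library (Saccharomyces cerevisiae BJ5465), nanobody expression was induced with galactose for 36–48 hours. FACS gates were set low and high (top ~1%) using anti-HA fluorescence for expression and streptavidin fluorescence for binding of the Sf9 membrane reagent. Each polyreactivity label is drawn from the gate of origin.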

Row | Sequence | polyreactivity (PSR sort gate)
1 | QVQLVESVGGLVQAGGSLRLSCAASGYIFGYNAMGWYRQAPGKERELVAAISRSAGRTYYADSVKGRFTISRDNAKNTVYLQMNSLKPEDTAVYYCAAQSYWLGYEYWGQGTQVTVSS | high polyreactivity
2 | QVQLVESVGGLVQAGGSLRLSCAASGYIFKYYAMGWYRQAPGKERELVAAISRSGGSTYYADSVKGRFTISRDNAKNTVYLQMNSLKPEDTAVYYCNAAAYVWKSKQRLYVITYDYWGQGTQVTVSW | high polyreactivity
3 | QVQLVESVGGLVQAGGSLRLSCAASGYTLGDYAMGWYRQAPGKERELVAVITRNGGRTYYADSVKGRFTISRDNAKNTVYLQMNSLKPEDTAVYYCNRDTSIRHYNYWGQGTQVTVSS | high polyreactivity
4 | QVQLVESVGGLVQAGGSLRLSCAASVYIFGYNAMGWYRQAPGKERELVAAISRSAGRTYYAVSVKGRFTISRDNAKNTVYLQMNSLKPEDTAVYYCAAQSYWLCYEYWGHGTQVTVSS | high polyreactivity
5 | QVQLVESVGGLVQAGGSLRLSCAPSGRTFYIYAMGRYRQAPGKERELVAAISISGSTYYADSVKGRFTISRDNAKNTVYLQMNSLKPEDTAVYYCAADYLDSTYGYVYGWDDYLGQGTQVTVSS | low polyreactivity
6 | QVQLVESVGGLVQAGGSLRLSCAPSGSTFYGYAMGWYRQAPGKESELVAAITWGGASTYYADSVKGRFTISRDNAKNTVYLQMNSLKPEDTAVYYCATVGWGYQPYPFGMDYWGQGTQVTVSS | low polyreactivity
7 | QVQLVESVGGLVQAGGSLRLSCASSGLIFPIYTMGWYRQAPGKERELVAASSSRGGSTYYADSVKGRFTISRDNAKNSVYLQMNCLKPEDTAVYDFGSYDYSGQGTQVTVSS | high polyreactivity
8 | QVQLVESVGGLVQAGGSLRLSCPASGINFWNYAMGRYRQAPGKERELVAVISRGGSTYYADSVKGRFTISRDNAKNTVYLQMNSLKPEDNAVYYCAADSVVWEMEYWGQGTLVTVSS | high polyreactivity
9 | QVQLVESVGGLVQAGGSLRLSCSDSGSTFKSYAMGWYRQSPGKERELVAAITHRGSTYYADSVKGRFTISRDNAKNTVYVQMNSLKPEDTAVYYCNVRRIGNGRRVDYCGQGTQVTVSS | high polyreactivity
10 | QVQLVESVGGLVQAGGSLRLSGADSGITFGVYAMGWYRQAPGKVRELVAAICVSGGSTYYADSVKGRFTISRDNAKNTVYLHMNSLKPEVTAVYYCAADRYGHFGYWGQGTQVTLSS | high polyreactivity
11 | QVQLVESVGGLVQAGGSLRLSSAASGRTFSNAKGWYRQAPGKERELVADISSGGSTNYADSVKGRFTISRDNAKNTVYLQMNSLKPEDPAVYYCAAVSGSLYGYSDDYWGQGTQVTVSS | low polyreactivity
12 | QVQLVESVGGLVQAGGSLRLSSAASGSIFAYNAMGSYRQAPGKERELVAAITSDDSTNNADSVKGRFTISRDNAKNTVYLQMNSLKPEDTAVYYCAAYYYYTYIIGYDYWGQGTQVTVSS | low polyreactivity
13 | QVQLVESVGGLVQAGGSLRLSSAASGSTFRGYALGWYRQSPGKERELVASISWSGGSTYYADSVKGRFTISRDNAKNTVYLQMNSLKQEDTAVYYCAARKRWRNIRMDYWGQGTQVTVSS | high polyreactivity
14 | QVQLVESVGGLVQAGRSHRLSGAASCFTFTGYALGWYRQAPGKEREFVAAISRGGSTKYADSVMGRFTISRDNAKNTVYLQMNSLKPEDTAVYYCDASPVYGISRYTLGIYNYGGQGTQVTVSS | high polyreactivity
15 | QVQLVESVGGLVQAGVSLPLSCAASGFTFSYNAMGWYIQAPGKERELVATIRSSGGSTNYADSVKGRFTISRDNAKNTVYVQMNSLKPEDTAVYYCAADFSYYSTYDYWGQGTQVTVSS | low polyreactivity
16 | QVQLVESVGGLVQPGGSLRLSCAASGFTFRNNAMGWYRQSPVKERELVAAITGSGGRTYYTDSVKGRFTISSDNAKNTVYLQMHSLKPEDTAVYYCNTRYRGVHYTEMDYWGQGTQVSVSS | high polyreactivity
17 | QVQLVESVGGVVQAGGSLRLCCAANRSTFAAKAMGWYRQAPGKERELGAAITSGGGTNYADSVKGRFTISRDNAKNTVYLQMNSLKPEDTAVYYCAARTWPWVLGATQDDYWGQGTQVTLSS | low polyreactivity
18 | QVQLVESVLGLVQAGGSLRLSCAASGSTILSNAIGWYRQAPGKERELVAAITSGGSTYYADSVKGGFTISRDNAKNTVYFQMNSLKPDDTAVYYCAVRYDRRRYDYWGQGTQVTVSS | low polyreactivity
19 | QVQLVESVRGLVHAGGSLRLSCAASGSTFYPYRMGGYRQAPGKEREFVAAITWSGGSTYYADSVKGRFTISRDNAKNTVYLQMNSLKPEDTAVYYCNKDARWYAYNSEYDHWGQGTQVSVSS | low polyreactivity
20 | QVQLVESVVGLVQAGGSLRLICAASGIIISRYAMECYRQAPGKERELVAAITRSGGDTYYADSVKGRFTISRDNAKNTVYLQMNSLKPEDTAVYYCAASSSWYEDHDYWGQGTQVTVSS | low polyreactivity
21 | QVQLVESVVGLVQAGGSLRLSCAASGFIFVVYAMGWYRQAPGKERELVAAITNGGITYYADSVKGRFTISRDNAKNTVYLQMNSLKPEDTAVYYCNAQYTDYDGYVGYYYWGQGTQVTVSS | low polyreactivity
22 | QVQLVESVVGLVQAGGSLRLSCAASGRIFYRYAMGWYRQAPGKERELVASITRSGITHYADSVKGRFTISRDNAKNTVYLQMNSLKPEDTAVYYCYARRGSPAPYDYWGQGTQVTVSS | high polyreactivity

Row | Sequence | polyreactivity (PSR sort gate)
23 | QVQLVESVVGLVQAGGSLRLSSAASGSIFPYYVMGWYRQAPGKERELVAAISSRGTSTYYADSVKGRFTLSRDNAKNSVYLQMNSLKPEDTAVYYCAAAYVKFYGYSAEYDYCGQGTQVTVSS | low polyreactivity
24 | QVQLVESWGGIVQAGGSLRLSCAASGFIFSRYGMGWYRQAPGKERELVAAISRSAGSTYYADSVKGRFTISRDNAKNTVYLQMNSQKPEETAVYYCAARHGGRATVEPPIQGYGYWGQGTQVTVSS | low polyreactivity
25 | QVQLVESWGGLFQAGGSLRLSCAASGSTFIYNAMGWYRKAPGKERELVAAITWNYGSTYYADSVKGRFTISRDNANNTVYLQMNSLKPEDTAVYYCAADFTIPYWDANFDYWGQGTQVTVSW | low polyreactivity
26 | QVQLVESWGGLGQAVGSLRLSCAASGRTFLIYAMGWYIQAPGTERELVASITGRGGRTSYADSVKGRFTISRDNAQNTVYLQMNSLKPEDTAVYYCAARNPYTSTYYYWGQGTQVTVSS | high polyreactivity
27 | QVQLVESWGGLVHAGGSLRLSCAASGSTFYWYAMGWYIQAPGKEREFVARISSSGSSTFYADSVKGRFTISRDNAKNTVYLQMNSLKPEDTAVYYCAAETYRHYCFNYWGQGTQVTVSS | high polyreactivity
28 | QVQLVESWGGLVQAGASLRLSCAASGRILPYYAMGWYRQAPGKERELVATISSGGRTNYADSVKGRFTISRDNAKITVYLQMNSLKPEDTEVYFCNKYGFKGGVGYDYWGQGTQVTVSS | high polyreactivity
29 | QVQLVESWGGLVQAGGSLRLICAASGSTFYYNAMGWYRQAPGKEREFVAAISSRRGSTYYADSVKGRFTISRDNAKNTVYLQMNSLKQEDTAVYYCAAKYSHRYDWGQGTQVTVSA | high polyreactivity
30 | QVQLVESWGGLVQAGGSLRLSCAASGFTFRAYAMGWYRQAPGKERELVAAISTGGGSTYYADSVKGRFTISRDNAKNTVYLQMKSLKPEDTAVYYCNALPQRRYYYWGQGTQVTVSS | high polyreactivity
31 | QVQLVESWGGLVQAGGSLRLSCAASGITFTVYAMGWYRQAPGKEREFVAAISSSGSTTYAVSVKGRLTFSRDNAKNTVYLQMNSLKPEDTAVYYCAAEGYYRFSTAYFRRKYEYCGQGTQVTVSS | low polyreactivity
32 | QVQLVESWGGLVQAGGSLRLSCAASGITLGYYSMGWYRQAPGKERELVAGISSSGDSTYYADSVKGRFTISRDNAKNSVYLQIKSLKPEDTAVYYCIADGWYFEYWGQGTQVTVSS | low polyreactivity
33 | QVQLVESWGGLVQAGGSLRLSCAASGLIFQTYTMGWYKQAPGKERELVAAITSSGGRTYYADSVKGRFTISRDNAKNTVYLQKNSLKPEDTAVYYCAARGPPSAGMGYWGQGTQVTVSS | high polyreactivity
34 | QVQLVESWGGLVQAGGSLRLSCAASGLILFAYTMGWYRQAPGKERELVAGIDGSGGTTYYADSVKGRFTISRDNAKNTVYLQMNSLNPEDTAVYYCAASGFRWQGVKRMDYWGQGTQVTVSS | low polyreactivity
35 | QVQLVESWGGLVQAGGSLRLSCAASGNLFADYAMGWYRQAPGTERELVAAISRGGITSYADSVKGRFTISRDNAKNTVYLQMNSLKPEDTAVYYCATDRYDVYDSLGFGYWGQGSQVTVSS | low polyreactivity
36 | QVQLVESWGGLVQAGGSLRLSCAASGRIFHRNTMGWYRQAPGKERELVAAIRSGSRTYYADSVKGRFTISRDNAKNTVYLQMNSLKPEDTAVYDCATTFGTPRYDYWGQGTQVTVSS | high polyreactivity
37 | QVQLVESWGGLVQAGGSLRLSCAASGRILGDYAMGWYRQAPGKEREFVAAIDYNGGSTNYADSVKGRFTISRDNAKNTVFLQMNSLKPEDTAVYYCAAPGFPSRNGFGYWGQGNQVTVSS | low polyreactivity
38 | QVQLVESWGGLVQAGGSLRLSCAASGRTFSRYAMGWYRQAPRKERELVAAISSRGGSTYYADSVKGRFTISRDFANNTVYLQMNSLYPEDTAVYYCNADSKVDPYGYDYWGQGTQVTVSS | high polyreactivity
39 | QVQLVESWGGLVQAGGSLRLSCAASGRTNGYAMGWYRQAPGKERELVARITWRGGSTSYADSVKGRFTISRDNAKNTVYLQMNSLKREDTAVYYCAAGFYFPVYTYVRKRYYYWGQGTQVTVSS | high polyreactivity
40 | QVQLVESWGGLVQAGGSLRLSCAASGSIFYRYAMGWYRQAPGKEREFVAAIRWRGGSTYYADSVKGRFTISRDNAKNTVYLQMNSLKPEDTAVYYCAAPTVQRYNYWGQGTQVTVSS | high polyreactivity
41 | QVQLVESWGGLVQAGGSLRLSCAASGSIFYTNVMGWYRQAPGKERELVARIDSGGSTNYADSVKGRFTISRDNAKNTVYLQMNSLKPEDTAVYYCAADWYIYDYWGQGTQVTVSS | low polyreactivity
42 | QVQLVESWGGLVQAGGSLRLSCAASGSLFTSNAMVWYRQAPGKEREFVAGIDYSTGGTSYADSVKGRFTISRDNAKNNVYLQMNRLLPEDTAVYYCNADRWLVYVHTWEYDYWGQGTQVTVSS | low polyreactivity
43 | QVQLVESWGGLVQAGGSLRLSCAASGSTFTPYVMGWSRQAPGKERELVAAISKRGGSTYYADSVKGRFTISRDNANNSVYLQMNSLKPADTAVYYCAAVQPAWGNGYWGQGTQVTVSS | high polyreactivity
